Source: the RNAGym collection of RNA variant scans (doi:10.7554/elife.80360)

B1: HDV Ribozyme (parent)
chain: GGCCGGCAUGGUCCCAGCCUCCUCGCUGGCGCCGGCUGGGCAACAUUCCGAGGGGACCGUCCCCUCGGUAAUGGCGAAUGGGACCCA

Variants of: B1
Assay: self-cleavage, relative activity (ratio to wild type); higher = more cleavage; co-transcriptional

Variant	self-cleavage
GGCCGGCAUGGUCCCAGCCUCCUGGCUGGCGCCGGCUGGGCAACAUUCCGAGGGGACCGUCCCCUCGGUAAUGGCGAAUGGGGCCCA [C24G A83G]	0.153
GGCCGGCAUGGUCCCAGCCUCCUGGCUGGCGCCGGCUGGGGAACAUUCCGAGGGGACCGUCCCCUCGGUAAUGGCGAAUGGGACCCA [C24G C41G]	0
GGCCGGCAUGGUCCCAGCCUCCUGGCUGGCGCCGGCUGGGUAACAUUCCGAGGGGACCGUCCCCUCGGUAAUGGCGAAUGGGACCCA [C24G C41U]	0.102
GGCCGGCAUGGUCCCAGCCUCCUAGCUGGCGCCGGCUGGGCAACAUUCCGAGGGUACCGUCCCCUCGGUAAUGGCGAAUGGGACCCA [C24A G55U]	0.908
GGCCGGCAUGGUCCCAGCCUCCGCGCUGGCGCCGGCUGGGCAACAUUCCGAGGGGACCGUCCCCCCGGUAAUGGCGAAUGGGACCCA [U23G U65C]	0.864
GGCCGGCAUGGUCCCAGCCUCCUAGCUGGCGCCGGCUGGGCAACAUUCCCAGGGGACCGUCCCCUCGGUAAUGGCGAAUGGGACCCA [C24A G50C]	0.855
GGCCGGCAUGGUCCCAGCCUCCUAGAUGGCGCCGGCUGGGCAACAUUCCGAGGGGACCGUCCCCUCGGUAAUGGCGAAUGGGACCCA [C24A C26A]	0.743
GGCCGGCAUGGUCCCAGCCUCCUAGCUGGCGCCGGCUGGGCAACAUUCCGAGGGGACCGUCCCCUCGGUAAUGGCGAAUGGGAUCCA [C24A C84U]	0.587
GGCCGGCAUGGUCCCAGCCUCCUAGCUGGCGCCGGCUGGGCAACAUUCCGAGGGGACCGUCCCCUCGGUAAUGGCGAAUGGAACCCA [C24A G82A]	0.223
GGCCGGCAUGGUCCCAGCCUCCUAGCUGGCGCCGGCUGGGCAACAUUCCGAGGGGACCGUCCCCUCGGUAAUGGCGAAUGGGACCCU [C24A A87U]	0.749
GGCCGGCAUGGUCCCAGCCUCCUAGCUGGCGCCGGCUGGGCAACAUUCCGAGGGGACCGUCCCCUCGGUAAUGGCGAAUGGGACCCG [C24A A87G]	0.7
GGCCGGCAUGGUCCCAGCCUCCUAGCUGGCGCCGGCUGGGCACCAUUCCGAGGGGACCGUCCCCUCGGUAAUGGCGAAUGGGACCCA [C24A A43C]	0.0415
GGCCGGCAUGGUCCCAGCCUCCGCGCUGGCGCCGGCUGGGCAACAUUCCGAGGGGACCGACCCCUCGGUAAUGGCGAAUGGGACCCA [U23G U60A]	0.831
GGCCGGCAUGGUCCCAGCCUCCUAGCUGGCGCCGGCUGGGCAACAUUCCGAGGGGACCGUCCCCUCGGUAAUGGCGAUUGGGACCCA [C24A A78U]	0.0923
GGCCGGCAUGGUCCCAGCCUCCUAGCUGGCGCCGGCUGGGCAACAUUCCGAGGGGACCGUCCCCUCGGUAAAGGCGAAUGGGACCCA [C24A U72A]	0.271
GGCCGGCAUGGUCCCAGCCUCCUGGCUGGCGCCGGCUGGGCCACAUUCCGAGGGGACCGUCCCCUCGGUAAUGGCGAAUGGGACCCA [C24G A42C]	0.101
GGCCGGCAUGGUCCCAGCCUCCUGGCUGGCGCCGGAUGGGCAACAUUCCGAGGGGACCGUCCCCUCGGUAAUGGCGAAUGGGACCCA [C24G C36A]	0
GGCCGGCAUGGUCCCAGCCUCCUGGCUGGCGCCGGGUGGGCAACAUUCCGAGGGGACCGUCCCCUCGGUAAUGGCGAAUGGGACCCA [C24G C36G]	0.0923
GGCCGGCAUGGUCCCAGCCUCCUGGCUGGCGCCGGCUGGGCAACAUUCCGAGGGGCCCGUCCCCUCGGUAAUGGCGAAUGGGACCCA [C24G A56C]	0.0723
GGCCGGCAUGGUCCCAGCCUCCUGGCUGGCGCCGGCUGGGCAACAUUCCGAGGGGGCCGUCCCCUCGGUAAUGGCGAAUGGGACCCA [C24G A56G]	0.0875
GGCCGGCAUGGUCCCAGCCUCCUGGCUGGCGCCGGCUGGGCAACAUUCCGAGGGGACCGUCCCCUCGGUAAUGGCGAGUGGGACCCA [C24G A78G]	0.173
GGCCGGCAUGGUCCCAGCCUCCUACCUGGCGCCGGCUGGGCAACAUUCCGAGGGGACCGUCCCCUCGGUAAUGGCGAAUGGGACCCA [C24A G25C]	0.208

Variant	self-cleavage
GGCCGGCAUGGUCCCAGCCUCCUAUCUGGCGCCGGCUGGGCAACAUUCCGAGGGGACCGUCCCCUCGGUAAUGGCGAAUGGGACCCA [C24A G25U]	0.277
GGCCGGCAUGGUCCCAGCCUCCGCGCUGGCGCCGGCGGGGCAACAUUCCGAGGGGACCGUCCCCUCGGUAAUGGCGAAUGGGACCCA [U23G U37G]	0.217
GGCCGGCAUGGUCCCAGCCUCCGCGCUGGCGCCGGCCGGGCAACAUUCCGAGGGGACCGUCCCCUCGGUAAUGGCGAAUGGGACCCA [U23G U37C]	0.751
GGCCGGCAUGGUCCCAGCCUCCUAGCUGGCGCCGGCUGGGCAACAUUCCGGGGGGACCGUCCCCUCGGUAAUGGCGAAUGGGACCCA [C24A A51G]	0.665
GGCCGGCAUGGUCCCAGCCUCCUAGCUGGCGCCGGCUGGGCAACAUUCCGAGUGGACCGUCCCCUCGGUAAUGGCGAAUGGGACCCA [C24A G53U]	0.858
GGCCGGCAUGGUCCCAGCCUCCUAGCUGGCGCCGGCUUGGCAACAUUCCGAGGGGACCGUCCCCUCGGUAAUGGCGAAUGGGACCCA [C24A G38U]	0.0791
GGCCGGCAUGGUCCCAGCCUCCUGGCUGGCGCCGGCUGGGCAACAUUCUGAGGGGACCGUCCCCUCGGUAAUGGCGAAUGGGACCCA [C24G C49U]	0.115
GGCCGGCAUGGUCCCAGCCUCCUAGCUGGCGCCGGCUGGGCAACAUUCCGAGGGGACCGUCCCCUCGGUAAUGGCGAAUGGGUCCCA [C24A A83U]	0.415
GGCCGGCAUGGUCCCAGCCUCCUAGCUGGCGCCGGCUGGGCAACAUUCCGAGGGGACCGUCCCCUCGGUAAUGGCGAAUGGGCCCCA [C24A A83C]	0.192
GGCCGGCAUGGUCCCAGCCUCCGCGCUGGCGCCGGCUGGGCAACAUUCCGAGGGGACCGUCCCCUCGGUAAUGGCGAAAGGGACCCA [U23G U79A]	0.322
GGCCGGCAUGGUCCCAGCCUCCUAGCUGGCGCCGGCUGGGCAACAUUCCGAGGGGACCGUCCCCCCGGUAAUGGCGAAUGGGACCCA [C24A U65C]	0.658
GGCCGGCAUGGUCCCAGCCUCCGCGCUGGCGCCGGCUGGGCAACAUUCCGAGGGGACCGUCCCCUCGGCAAUGGCGAAUGGGACCCA [U23G U69C]	0.598
GGCCGGCAUGGUCCCAGCCUCCUAGCUGGCGCCGGCUGGGCAACAUCCCGAGGGGACCGUCCCCUCGGUAAUGGCGAAUGGGACCCA [C24A U47C]	0.508
GGCCGGCAUGGUCCCAGCCUCCUAGCUGGCGCCGGCUGGGCAACAUGCCGAGGGGACCGUCCCCUCGGUAAUGGCGAAUGGGACCCA [C24A U47G]	0.434
GGCCGGCAUGGUCCCAGCCUCCUAGCUGGCGCCGGCUGGGCAACAUUCCGAGGGGACCGUCCCCUCGAUAAUGGCGAAUGGGACCCA [C24A G68A]	0.678
GGCCGGCAUGGUCCCAGCCUCCUGGCUGGCGCCGGCUGGGCAAGAUUCCGAGGGGACCGUCCCCUCGGUAAUGGCGAAUGGGACCCA [C24G C44G]	0.125
GGCCGGCAUGGUCCCAGCCUCCUAGCUGGCGCCGGCUGGGCAACAGUCCGAGGGGACCGUCCCCUCGGUAAUGGCGAAUGGGACCCA [C24A U46G]	0.554
GGCCGGCAUGGUCCCAGCCUCCUAGCUGGCGCCGGCUGGGCAACACUCCGAGGGGACCGUCCCCUCGGUAAUGGCGAAUGGGACCCA [C24A U46C]	0.269
GGCCGGCAUGGUCCCAGCCUCCUAGCUGGCGCCGGCUGGUCAACAUUCCGAGGGGACCGUCCCCUCGGUAAUGGCGAAUGGGACCCA [C24A G40U]	0.41
GGCCGGCAUGGUCCCAGCCUCCUAGCUGGCGCCUGCUGGGCAACAUUCCGAGGGGACCGUCCCCUCGGUAAUGGCGAAUGGGACCCA [C24A G34U]	0.0831
GGCCGGCAUGGUCCCAGCCUCCUAGCUGGCGCCGGCUGGGCAACAUUCCGAGGGGACCGUCCCCUCGGUAAUGGCGAAUGGGACCUA [C24A C86U]	0.633
GGCCGGCAUGGUCCCAGCCUCCUGGCUGGCGCCGGCUGGGCAACAUUCCGCGGGGACCGUCCCCUCGGUAAUGGCGAAUGGGACCCA [C24G A51C]	0

Variant	self-cleavage
GGCCGGCAUGGUCCCAGCCUCCUAGCUAGCGCCGGCUGGGCAACAUUCCGAGGGGACCGUCCCCUCGGUAAUGGCGAAUGGGACCCA [C24A G28A]	0.208
GGCCGGCAUGGUCCCAGCCUCCUAGCUUGCGCCGGCUGGGCAACAUUCCGAGGGGACCGUCCCCUCGGUAAUGGCGAAUGGGACCCA [C24A G28U]	0.0386
GGCCGGCAUGGUCCCAGCCUCCUAGCUGGCGCCGGCUGGGCAACAUUCCGAGGGGACCCUCCCCUCGGUAAUGGCGAAUGGGACCCA [C24A G59C]	0.8
GGCCGGCAUGGUCCCAGCCUCCUAGCUGGCGCCGGCUGGGCAACCUUCCGAGGGGACCGUCCCCUCGGUAAUGGCGAAUGGGACCCA [C24A A45C]	0.19
GGCCGGCAUGGUCCCAGCCUCCUAGCUGCCGCCGGCUGGGCAACAUUCCGAGGGGACCGUCCCCUCGGUAAUGGCGAAUGGGACCCA [C24A G29C]	0.136
GGCCGGCAUGGUCCCAGCCUCCUAGCUGGCGCCGGCUGGGCAACAUUCCGAGGGGACCGUCCCCUCGGUAAUGGUGAAUGGGACCCA [C24A C75U]	0.169
GGCCGGCAUGGUCCCAGCCUCCUAGCUGGCGCCGGCUGGGCAACAUUCCGAGGGGACCGUCCCCUCGGUAAUGGGGAAUGGGACCCA [C24A C75G]	0.0898
GGCCGGCAUGGUCCCAGCCUCCUAGCUGGCGCCGGCUGGGCAACAUUCCGAGGGGACCGUCCCCUAGGUAAUGGCGAAUGGGACCCA [C24A C66A]	0.764
GGCCGGCAUGGUCCCAGCCUCCUAGCUGGCGCCGGCUGGGCAACAUUCCGAGGGGACCGUCCCCUCGGUAAUGGCGCAUGGGACCCA [C24A A77C]	0.185
GGCCGGCAUGGUCCCAGCCUCCUAGCUGGCGCCGGCUGGGCAACAUUCGGAGGGGACCGUCCCCUCGGUAAUGGCGAAUGGGACCCA [C24A C49G]	0.787
GGCCGGCAUGGUCCCAGCCUCCUAGCUGGCGCCGGCUGGGCAACAUUCCGAUGGGACCGUCCCCUCGGUAAUGGCGAAUGGGACCCA [C24A G52U]	0.769
GGCCGGCAUGGUCCCAGCCUCCUAGCUGGCGCCGGCUGGGCAACAUUCCGAGGGGAUCGUCCCCUCGGUAAUGGCGAAUGGGACCCA [C24A C57U]	0.727
GGCCGGCAUGGUCCCAGCCUCCUAGCUGGCGCCGGCUGGGCAACAUUCCGAGGGGACCGUCCCCUCCGUAAUGGCGAAUGGGACCCA [C24A G67C]	0.739
GGCCGGCAUGGUCCCAGCCUCCUGGCUGGCGCUGGCUGGGCAACAUUCCGAGGGGACCGUCCCCUCGGUAAUGGCGAAUGGGACCCA [C24G C33U]	0.104
GGCCGGCAUGGUCCCAGCCUCCUAGCUGGCGCCGGCUGGGCAACAUUCCGAGGGGACCGUCCCCUCGGUAAUGGCGAAAGGGACCCA [C24A U79A]	0.227
GGCCGGCAUGGUCCCAGCCUCCUAGCUGGCGCCGGCUGGGCAACAUUACGAGGGGACCGUCCCCUCGGUAAUGGCGAAUGGGACCCA [C24A C48A]	0.717
GGCCGGCAUGGUCCCAGCCUCCUAGCUGGCGCCGGCUGGGCAACAUUCCGAGGGGACCGUCCCCUCGGUAAUGGCGAAUGAGACCCA [C24A G81A]	0.0852
GGCCGGCAUGGUCCCAGCCUCCUAGCUGGCGCCGGCUGGGCAACAUUCCGAGGGGACCGUCCCCUCGGUAAUGGCGAAUGCGACCCA [C24A G81C]	0.17
GGCCGGCAUGGUCCCAGCCUCCUAGCUGGCGCCGGCUGGGCAACAUUCCGAGGGGACCGUCGCCUCGGUAAUGGCGAAUGGGACCCA [C24A C62G]	0.554
GGCCGGCAUGGUCCCAGCCUCCUAGCUGGCGCCGACUGGGCAACAUUCCGAGGGGACCGUCCCCUCGGUAAUGGCGAAUGGGACCCA [C24A G35A]	0.212
